# Values quoted from earlier work in article PMC5764468.
# pKd: −log10 of the molar value.
# Molecular target: calmodulin (Homo sapiens) (UniProt P0DP23)
substance,measurement,value
CyaA AC domain AC (from UniProt P0DKX7),pKd,> 10.00
